For this test, the target named is T1, ComPS (residues 563-763 of the histidine kinase ComP from Bacillus amyloliquefaciens Q-426) (Bacillus amyloliquefaciens Q-426).
T1 construct: No removal of the 6xHis tag is described; The forward primer F-BaComPS has an NcoI site followed by AT, which may add Met-Asp before R563; also called BaComPS; truncated ComPS protein; source: E. coli BL21 (RIL), pPROEXHTa vector, purified (Ni-NTA)
Put plainly: MST; microscale thermophoresis of ComPS with ComA; labelled partner, buffer and temperature not told in the text shown (curve in Supplementary Figure S8). The settings on record: both partners purified. A general note: Microscale thermophoresis detects binding through changes in fluorescence in a small temperature gradient.

The values that follow come from article PMC9620489, “Insights into the structure and function of the histidine kinase ComP from Bacillus amyloliquefaciens based on molecular modeling” (Bioscience Reports, 2022).

By Kd is commonly meant the constant that tells how readily two partners part at equilibrium. Read a high Kd as lower affinity.

B1: response regulator ComA (natural protein)
chain: MKKILVIDDHPAVMEGTKTILETDTNLSVDCLSPDASEQFVLRHDFSAYDLILMDLNLGDDISGIELSKKILKENPLCKIIVYTGYEVEDYFEESIRAGLHGAISKTESKEKIMQYIYHVLNGQILVDFSYFKQLMTQQKTKTSSSPQSEQDRLTPRERHILQEVEKGLTNQEIADALHLSKRSIEYSLTSIFNKLNVGSRTEAVLIAKSDNVL
Turning to B1, binding was put at a Kd of 78 µM.
